Here are results for one molecule from article PMC6155255, “Synthetic Peptides Derived from Bovine Lactoferricin Exhibit Antimicrobial Activity against E. coli ATCC 11775, S. maltophilia ATCC 13636 and S. enteritidis ATCC 13076” (Molecules : A Journal of Synthetic Chemistry and Natural …, 2017).

Assay [1] deals with E. coli ATCC 11775. The assay is classed as cell-based, Escherichia coli. The following applies: E. coli ATCC 11775, value in brackets (µM), 24 h at 37 °C, performed twice. The method, then:
(§1) The MIC and MBC were determined using a microdilution assay. In brief, bacterial strains were incubated for 18 to 24 h at 37 °C in an MH broth until an optical density of 0.15 to 0.30 (620 nm) was obtained. 90 µL of Mueller-Hinton broth (MHB) were mixed with 90 µL of peptide (440 µg/mL), and using a 96-well microtiter plate peptide, serial dilution (200, 100, 50, 25, 12.5, and 6.2 µg/mL) was performed. 10 µL of inoculum (2 × 10^6 CFU/mL) was added to each well. Final volume in each well was 100 µL. Then they were incubated for 24 h at 37 °C; and the absorbance at 620 nm was measured using an Asys Expert Plus ELISA reader. To determine the MBC, an aliquot was taken from each well and was spread onto a MHA plate. After 24 h at 37 °C, the CFU/mL was determined. Each of these tests was performed twice.

The subject of assay [2] is S. maltophilia ATCC 13636. The assay is classed as cell-based, Stenotrophomonas maltophilia. The conditions noted are these: S. maltophilia ATCC 13636, value in brackets (µM), 24 h at 37 °C, performed twice. The method, then: as §1
In assay [3] the test system is S. enteritidis ATCC 13076. The assay is classed as cell-based, Salmonella enteritidis. The conditions noted are these: S. enteritidis ATCC 13076, value in brackets (µM), 24 h at 37 °C, performed twice. The procedure:
as §1

Assay [4] deals with E. coli ATCC 11775. It is filed as cell-based, Escherichia coli. The following applies: 200 µg/well, 8 mm wells in Mueller-Hinton agar, 48 h at 37 °C. The method, then: (§2) These tests were carried out following the methodology reported in [36]. Briefly, an inoculum aliquot (200 µL; 2 × 10^6 CFU/mL) was placed on Mueller-Hinton (MH) Agar plates, mixed, and allowed to solidify. Wells were drilled using a punch of 8 mm, and then each hollow was filled with 100 µL of peptide (2000 µg/mL). Incubation for 48 h at 37 °C was then performed. As a non-growth control, ciprofloxacin 1.25 µg/mL was used for all tested strains. Sterile water was used as a growth control.

The subject of assay [5] is S. maltophilia ATCC 13636. The assay is classed as cell-based, Stenotrophomonas maltophilia. The following applies: 200 µg/well, 8 mm wells in Mueller-Hinton agar, 48 h at 37 °C. The procedure:
as §2

Assay [6] deals with S. enteritidis ATCC 13076. The assay is classed as cell-based, Salmonella enteritidis. The conditions noted are these: 200 µg/well, 8 mm wells in Mueller-Hinton agar, 48 h at 37 °C. The method, then: as §2
For assay [7], the system named is various strains of E. coli (0111, L361, ATCC 25922, wild strain, and IID-861). The conditions noted are these: various strains of E. coli (0111, L361, ATCC 25922, wild strain, IID-861); cited from earlier work. The procedure: For BLF, a Minimum Inhibitory Concentration (MIC) and Minimum Bactericidal Concentration (MBC) larger than 200 µg/mL against the evaluated strains were found (Table 1), implying that high concentrations of the protein are required to achieve antibacterial activity. […] Furthermore, its purification is a long and expensive process.

Where [8] appears, read: microdilution, Mueller-Hinton broth.

In general, MBC refers to the smallest concentration meeting the test's criterion for killing. For orientation: MIC means the lowest concentration that inhibits growth of the organism. Higher therefore signals a less susceptible organism.

A value given as a limit tells only on which side of the number the result lay.

B1: BLF: Bovine lactoferrin, 703 amino acids, 80 kDa glycoprotein; obtained from Sigma-Aldrich (protein, UniProt P24627 20-708, looked up)
Lactotransferrin: APRKNVRWCTISQPEWFKCRRWQWRMKKLGAPSITCVRRAFALECIRAIAEKKADAVTLDGGMVFEAGRDPYKLRPVAAEIYGTKESPQTHYYAVAVVKKGSNFQLDQLQGRKSCHTGLGRSAGWIIPMGILRPYLSWTESLEPLQGAVAKFFSASCVPCIDRQAYPNLCQLCKGEGENQCACSSREPYFGYSGAFKCLQDGAGDVAFVKETTVFENLPEKADRDQYELLCLNNSRAPVDAFKECHLAQVPSHAVVARSVDGKEDLIWKLLSKAQEKFGKNKSRSFQLFGSPPGQRDLLFKDSALGFLRIPSKVDSALYLGSRYLTTLKNLRETAEEVKARYTRVVWCAVGPEEQKKCQQWSQQSGQNVTCATASTTDDCIVLVLKGEADALNLDGGYIYTAGKCGLVPVLAENRKSSKHSSLDCVLRPTEGYLAVAVVKKANEGLTWNSLKDKKSCHTAVDRTAGWNIPMGLIVNQTGSCAFDEFFSQSCAPGADPKSRLCALCAGDDQGLDKCVPNSKEKYYGYTGAFRCLAEDVGDVAFVKNDTVWENTNGESTADWAKNLNREDFRLLCLDGTRKPVTEAQSCHLAVAPNHAVVSRSDRAAHVKQVLLHQQALFGKNGKNCPDKFCLFKSETKNLLFNDNTECLAKLGGRPTYEEYLGTEYVTAIANLKKCSTSPLLEACAFLTR
For B1, the MBC (with E. coli ATCC 11775 [1] (aliquot spread on MHA plate); in assay [2] (aliquot spread on MHA plate); in assay [3] (aliquot spread on MHA plate)) was greater than 2.5 µM throughout. In addition, the MIC (in the assay with E. coli ATCC 11775 [1] (setting [8]); in assay [2] (setting [8]); in assay [3] (setting [8])) was greater than 2.5 µM in each case. Also, the inhibition halo (in the assay with E. coli ATCC 11775 [4]; in assay [5]; in assay [6]) was ~ 9 mm each time. For the same molecule, the “BLF concentration required for exhibiting an antibacterial effect” value in assay [7] was “greater than 200 µg/mL”.
